Literature values in article PMC7768908 (Biochemistry, 2020).

How the values were obtained:
[1] = tested on: cytoplasmic tail of MT1-MMP; details: ref [13]
MT1-MMP = details: by binding the cytoplasmic tail of MT1-MMP; ref [13]

binding to the cytoplasmic tail of MT1-MMP [1]: binds to the cytoplasmic tail of MT1-MMP
B1: ADI1 gene product: ADI1 gene encoding HsARD; human acireductone dioxygenase (protein, UniProt Q9BV57 1-179, looked up)
Acireductone dioxygenase: MVQAWYMDDAPGDPRQPHRPDPGRPVGLEQLRRLGVLYWKLDADKYENDPELEKIRRERNYSWMDIITICKDKLPNYEEKIKMFYEEHLHLDDEIRYILDGSGYFDVRDKEDQWIRIFMEKGDMVTLPAGIYHRFTVDEKNYTKAMRLFVGEPVWTAYNRPADHFEARGQYVKFLAQTA
effect on MT1-MMP protease activity (MT1-MMP): suppressing protease activity
